± gives the standard error. For part of these data: Fewer inactive variants are shown than the library holds.
B1: glmS ribozyme (parent)
chain: AUAAAAGCGCCAGAACUACAGAAAUGUAGUUGACGAGGAGGAGGUUUAUCGAAUUUUCGGCGGAUGCCUCCAAA

Legend:
Conditions in all cases: with glucosamine-6-phosphate
[1] = variants of: B1; test: kcat; higher = faster cleavage; RNA array
Procedure, shortened: (§1)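 Sequenced MiSeq chips were the platform: E. coli RNA polymerase transcribed barcoded ribozyme variants on them in situ, and a hybridised Cy3 probe tracked these at 37 °C. After glucosamine-6-phosphate (40 μM to 10 mM) in HEPES/KCl/Mg(OAc)2 buffer was flowed in, tiles were imaged over ~14 h. Signals normalised to baseline and to non-cleaving reference variants were reduced to per-tile medians and fit to one- or two-exponential decays to obtain kobs. kcat and KM were derived through weighted Michaelis–Menten fits across concentrations.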

[2] = variants of: B1; test: self-cleavage kobs at 40 uM GlcN6P; higher = faster cleavage; RNA array
Procedure, shortened: as §1

[3] = variants of: B1; test: self-cleavage kobs at 160 uM GlcN6P; higher = faster cleavage; RNA array
Procedure, shortened: as §1

[4] = variants of: B1; test: self-cleavage kobs at 10000 uM GlcN6P; higher = faster cleavage; RNA array
Procedure, shortened: as §1

[5] = variants of: B1; test: self-cleavage kobs at 640 uM GlcN6P; higher = faster cleavage; RNA array
Procedure, shortened: as §1

[6] = variants of: B1; test: self-cleavage kobs at 2500 uM GlcN6P; higher = faster cleavage; RNA array
Procedure, shortened: as §1

[7] = variants of: B1; test: KM; higher = weaker cofactor use; RNA array
Procedure, shortened: as §1

Row | Variant | kcat [1] [s⁻¹] | self-cleavage kobs at 40 uM GlcN6P [2] [s⁻¹] | self-cleavage kobs at 160 uM GlcN6P [3] [s⁻¹] | self-cleavage kobs at 10000 uM GlcN6P [4] [s⁻¹] | self-cleavage kobs at 640 uM GlcN6P [5] [s⁻¹] | self-cleavage kobs at 2500 uM GlcN6P [6] [s⁻¹] | KM [7] [µM]
1 | C16G A48G | < 1e-05 | < 1e-05 | – | – | – | – | –
2 | C16G A48U | 0.000805 ± 0.0004 | < 1e-05 | < 1e-05 | 4.45e-05 ± 9.8e-06 | – | – | –
3 | C16A A53U | 0.00183 ± 0.0008 | – | – | 0.00118 ± 0.00035 | 0.000241 ± 6.3e-05 | 0.00116 ± 0.00029 | –
4 | A15U C58U | 8.55e-05 ± 9.3e-06 | – | – | 6.48e-05 ± 8.4e-06 | – | 3.46e-05 ± 8.3e-06 | 3320 ± 980
5 | A15U C58A | 0.000154 ± 5.6e-06 | – | – | 0.000113 ± 1e-05 | – | 6.38e-05 ± 1.2e-05 | 3640 ± 360
6 | A15G U57C C58A | 3.45e-05 ± 4.1e-06 | – | – | 3.05e-05 ± 1.1e-05 | – | – | –
7 | C16G C68G | 1.82e-05 ± 5.5e-06 | – | – | – | – | – | –
8 | C16G C68U | 0.000168 ± 6e-06 | – | 3.33e-05 ± 1.5e-05 | 0.00016 ± 2.3e-05 | 7.49e-05 ± 1.2e-05 | 0.000125 ± 1.6e-05 | 778 ± 79
9 | C16G C68A | 2.15e-05 ± 6.1e-06 | – | – | – | – | – | –
10 | A15U U30A | 0.0245 ± 0.006 | 0.00246 ± 0.0004 | – | 0.0272 ± 0.0062 | 0.0102 ± 0.0044 | – | 377 ± 130
11 | A15U U65C | 5.03e-05 ± 3.5e-06 | – | – | 4.61e-05 ± 1.5e-05 | 4.42e-05 ± 1.2e-05 | 4.8e-05 ± 8.3e-06 | –
12 | C16U C58A C67G | 0.000119 ± 2.4e-06 | – | 4.51e-05 ± 1.9e-05 | 0.000118 ± 2.5e-05 | 8.08e-05 ± 1.6e-05 | 0.000106 ± 2e-05 | 283 ± 23
13 | C16U A48C | 0.000297 ± 6.4e-05 | – | – | 0.000203 ± 3.1e-05 | 3.07e-05 ± 1.2e-05 | 0.000142 ± 2.4e-05 | 3910 ± 1700
14 | C16G C61U C67U | < 1e-05 | < 1e-05 | < 1e-05 | < 1e-05 | – | – | –
15 | A15U U56C | 0.00101 ± 4.2e-05 | – | 6.26e-05 ± 9.4e-06 | 0.0008 ± 9.1e-05 | 0.000221 ± 2.7e-05 | 0.000551 ± 6.9e-05 | 2320 ± 150
16 | A15G G59A | 0.000151 ± 1.1e-05 | – | – | 0.000112 ± 1.5e-05 | – | 6.85e-05 ± 2.3e-05 | 3440 ± 750
17 | C16A U31G C70U | 0.00025 ± 1.3e-05 | – | 7.99e-05 ± 2.2e-05 | 0.000235 ± 4.9e-05 | 0.000157 ± 3e-05 | 0.000242 ± 6.1e-05 | 351 ± 54
18 | C16G A52U | 0.00015 ± 2.4e-05 | – | – | 8.41e-05 ± 1.5e-05 | – | – | 7790 ± 2700

Row | Variant | kcat [1] [s⁻¹] | self-cleavage kobs at 40 uM GlcN6P [2] [s⁻¹] | self-cleavage kobs at 160 uM GlcN6P [3] [s⁻¹] | self-cleavage kobs at 10000 uM GlcN6P [4] [s⁻¹] | self-cleavage kobs at 640 uM GlcN6P [5] [s⁻¹] | self-cleavage kobs at 2500 uM GlcN6P [6] [s⁻¹] | KM [7] [µM]
19 | C16G U57G | 2.25e-05 ± 2.8e-06 | < 1e-05 | – | – | – | – | –
20 | C16G G41C | 2.59e-05 ± 7.1e-06 | < 1e-05 | < 1e-05 | – | – | – | –
21 | C16G G41A | 9.56e-05 ± 1.7e-05 | – | < 1e-05 | 7.96e-05 ± 1.2e-05 | – | 7.9e-05 ± 1.8e-05 | –
22 | A15G G40A | 0.0072 ± 0.0015 | 0.000316 ± 8.2e-05 | 0.000754 ± 0.00016 | 0.00713 ± 0.002 | 0.00207 ± 0.00049 | 0.00475 ± 0.00096 | 1290 ± 400
23 | A15G G40U | 0.00552 ± 0.00099 | 0.000202 ± 2.1e-05 | 0.000466 ± 6.2e-05 | 0.00473 ± 0.00045 | 0.00181 ± 0.0002 | 0.00448 ± 0.00068 | 1330 ± 360
24 | A15U U49G C50G G63A | 2.96e-05 ± 6.8e-06 | < 1e-05 | – | – | – | – | –
25 | A15G U69A | 0.000201 ± 4.3e-05 | 6.42e-05 ± 9.6e-06 | 0.000145 ± 1.7e-05 | 0.000312 ± 4.6e-05 | 0.000137 ± 1.8e-05 | 0.000264 ± 5.2e-05 | –
26 | C16U A53U G66A C67U | 0.00153 ± 0.0004 | 8.2e-05 ± 1.8e-05 | – | 0.00215 ± 0.00061 | 0.000671 ± 0.00013 | 0.000968 ± 0.00031 | 755 ± 320
27 | C16U C34A C50G U56C | 1.31e-05 ± 1.9e-06 | – | – | – | – | – | –
28 | C16G A33G C71U | 1.51e-05 ± 7.7e-07 | – | – | < 1e-05 | – | – | 137 ± 30
29 | C16G A53G | 0.00701 ± 0.0012 | 0.000168 ± 3.2e-05 | 0.000453 ± 7.3e-05 | 0.0061 ± 0.0011 | 0.00151 ± 0.00025 | 0.00339 ± 0.00099 | 2160 ± 510
30 | A15G U45C | 0.00752 ± 0.0016 | 7.04e-05 ± 1.4e-05 | 0.000179 ± 3.2e-05 | 0.00497 ± 0.00061 | 0.000853 ± 0.00012 | 0.00219 ± 0.00027 | 5570 ± 1600
31 | C16G G29A | 0.00419 ± 0.00058 | 9.85e-05 ± 1.6e-05 | 0.000295 ± 5.2e-05 | 0.00387 ± 0.00066 | 0.00103 ± 0.00015 | 0.00212 ± 0.00039 | 1940 ± 370
32 | C16G C50U | < 1e-05 | – | < 1e-05 | – | – | – | –
33 | A15U C16A | 0.00121 ± 9.4e-05 | – | 6.19e-05 ± 8.7e-06 | 0.000959 ± 9.8e-05 | 0.000244 ± 2.2e-05 | 0.000544 ± 7e-05 | 2740 ± 310
34 | A15U U57G | 1.7e-05 ± 6.8e-06 | – | – | – | – | – | –
35 | A15U U57A | 4.21e-05 ± 3.2e-07 | – | – | 3.41e-05 ± 5.8e-06 | – | – | 2340 ± 76
36 | A15U U57C | 8.55e-05 ± 5e-06 | – | < 1e-05 | 5.82e-05 ± 8.1e-06 | – | 2.97e-05 ± 8.8e-06 | 4690 ± 680
